According to patent US20070254830A1 (UNIVERSITY OF TOKYO, published 2007):

Molecular target: T1, Myc/His-tagged C20orf20 (Homo sapiens (Human), UniProt Q9NV56 1-204)
T1 construct: Expressed in transfected COS7, SW480, HEK293 or HEK293F cells from pcDNA3.1Myc/His-C20orf20; also called myc-tagged C20orf20; pcDNA3.1Myc/His-C20orf20; not shown: Myc/His tag from the pcDNA3.1Myc/His vector
Test: reciprocal co-immunoprecipitation (anti-HA IP / anti-myc blot and anti-myc IP / anti-HA blot) from co-transfected COS7 cells
Experimental: The entire coding region of p120 was amplified by RT-PCR and cloned into pCAGGS-HA vector. The primer sequences used for the amplification were 5′-[…]-3′ (SEQ ID NO.5) and 5′-[…]-3′ (SEQ ID NO.6). We transfected COS7 cells with pcDNA3.1Myc/His-C20orf20, pCAGGS-HA-p120 or their combination, and performed immunoprecipitation assay using anti-Myc or anti-HA antibody. Cells were washed with PBS and lysed in TNE buffer containing 150 mM NaCl, 0.5% NP40, 10 mM Tris-HCl (pH7.8), supplemented with a Protease Inhibitor Cocktail 3 (Roche). In a typical immunoprecipitation reaction, 400 μg of whole-cell extract was incubated with 1 μg of anti-Myc (Santa Cruz) or anti-HA antibody (Roche), and 20 μl of protein G Sepharose beads (Zymed) at 4° C. for 2 hr. Beads were washed four times in 1 ml of TNE buffer and proteins bound to the beads were eluted by boiling in Laemmli sample buffer. The precipitated protein was separated by SDS-PAGE and immunoblot analysis was carried out using with either rat anti-HA antibody or mouse anti-Myc antibody, respectively.

T1 sequence (Q9NV56 whole entry): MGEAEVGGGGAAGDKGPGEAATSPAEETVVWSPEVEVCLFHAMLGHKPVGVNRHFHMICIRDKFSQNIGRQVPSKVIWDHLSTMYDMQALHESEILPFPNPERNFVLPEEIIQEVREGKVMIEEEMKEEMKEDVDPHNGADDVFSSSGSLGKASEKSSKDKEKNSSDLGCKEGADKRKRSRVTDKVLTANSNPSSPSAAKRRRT

B1: HA-tagged p120 (other)
chain: MRSGDQNWVSVSRAIKPFAEPGRPPDWFSQKHCASQYSELLETTETPKRKRGEKGEVVETVEDVIVRKLTAERVEELKKVIKETQERYRRLKRDAELIQAGHMDSRLDELCNDIATKKKLEEEEAEVKRKATDAAYQARQAVKTPPRRLPTVMVRSPIDSASPGGDYPLGDLTPTTMEEATSGVTPGTLPSTPVTSFPGIPDTLPPGSAPLEAPMTPVTDDSPQKKMLGQKATPPPSPLLSELLKKGSLLPTSPRLVNESEMAVASGHLNSTGVLLEVGGVLPMIHGGEIQQTPNTVAASPAASGAPTLSRLLEAGPTQFTTPLASFTTVASEPPVKLVPPPVESVSHATIVMMPALPAPSSAPAVSTTESVAPVSQPDNCVPMEAVGDPHTVTVSMDSSEISMIINSIKEECFRSGVAEAPVGSKAPSIDGKEELDLAEKMDIAVSYTGEELDFETVGDIIAIIEDKVDDHPEVLDVAAVEAALSFCEENDDPQSLPGPWEHPIQQERDKPVPLPAPEMTVKQERLDFEETENKGIHELVDIREPSAEIKVEPAEPEPVISGAEIVAGVVPATSMEPPELRSQDLDEELGSTAAGEIVEADVAIGKGDETPLTNVKTEASPESMLSPSHGSNPIEDPLEAETQHKFEMSDSLKEESGTIFGSQIKDAPGEDEEEDGVSEAASLEEPKEEDQGEGYLSEMDNEPPVSESDDGFSIHNATLQSHTLADSIPSSPASSQFSVCSEDQEAIQAQKIWKKAIMLVWRAAANHRYANVFLQPVTDDIAPGYHSIVQRPMDLSTIKKNIENGLIRSTAEFQRDIMLMFQNAVMYNSSDHDVYHMAVEMQRDVLEQIQQFLATQLIMQTSESGISAKSLRGRDSTRKQDASEKDSVPMGSPAFLLSLFDGGTRGRRCAIEADMKMKK
notes: expressed in transfected COS7, SW480, HEK293 or HEK293F cells; also called SMAP; not shown: HA tag from the pCAGGS-HA vector
B1: binds.
